According to patent US20180164286A1 (MEDICAL DIAGNOSTIC LABORATORIES, published 2018):

Key:
[1] = molecular target: Small BiT (SB)-eIF4E, full-length; assay: cell-based or functional assay
[2] = molecular target: T1, Small BiT (SB)-eIF4E, full-length; assay: split-luciferase luminescence in 3A1 cell line stably expressing SB-eIF4E
T1 construct: N-terminal Small BiT fusion of full-length eIF4E (cDNA Origene RC207333), expressed intracellularly in HEK293, MCF-7 or HEK293-derived clones; also called Full-length SB-eIF4E; SB-linked eIF4E

[3] = molecular target: T1, Small BiT (SB)-eIF4E, full-length; assay: split-luciferase (NanoBiT) luminescence in HEK293 cells

| Binder | fold-change of split-luciferase luminescence, rapamycin (50 nM, 1 h) over vehicle; HEK293 cells [1] [fold] | binding result [2] | other results |
| --- | --- | --- | --- |
| 4E-BP1 with C-terminal LB at residue 75 (other, UniProt Q13541 1-75, looked up, not shown: large carriers) MSGGSSCSQTPSRAIPATRRVVLGDGVQLPPGDYSTTPGGTLFSTTPGGTRIIYDRKFLMECRNSPVTKTPPRDL | 0.83 | – | – |
| Large BiT (LB)-4E-BP2, full-length (other) MVFTLEDFVGDWEQTAAYNLDQVLEQGGVSSLLQNLAVSVTPIQRIVRSGENALKIDIHVIIPYEGLSADQMAQIEEVFKVVYPVDDHHFKVILPYGTLVIDGVTPNMLNYFGRPYEGIAVFDGKKITVTGTLWNGNKIIDERLITPDGSMLFRVTINSGSSGGGGSGGGGSSGMSSSAGSGHQPSQSRAIPTRTVAISDAAQLPHDYCTTPGGTLFSTTPGGTRIIYDRKFLLDRRNSPMAQTPPCHLPNIPGVTSPGTLIEDSKVEVNNLNNLNNHDRKHAVGDDAQFEMDI | 1.84 | – | – |
| D55Y LB-4E-BP2 (other, Patient (COSMIC) mutation made in LB-4E-BP2 as a linear expression cassette; The residue number counts on 4E-BP2 itself; also called 4EBP2-D55Y) MVFTLEDFVGDWEQTAAYNLDQVLEQGGVSSLLQNLAVSVTPIQRIVRSGENALKIDIHVIIPYEGLSADQMAQIEEVFKVVYPVDDHHFKVILPYGTLVIDGVTPNMLNYFGRPYEGIAVFDGKKITVTGTLWNGNKIIDERLITPDGSMLFRVTINSGSSGGGGSGGGGSSGMSSSAGSGHQPSQSRAIPTRTVAISDAAQLPHDYCTTPGGTLFSTTPGGTRIIYYRKFLLDRRNSPMAQTPPCHLPNIPGVTSPGTLIEDSKVEVNNLNNLNNHDRKHAVGDDAQFEMDI | – | no binding | – |
| R62P LB-4E-BP2 (other, Patient (COSMIC) mutation made in LB-4E-BP2 as a linear expression cassette; The residue number counts on 4E-BP2 itself; also called 4EBP2-R62P) MVFTLEDFVGDWEQTAAYNLDQVLEQGGVSSLLQNLAVSVTPIQRIVRSGENALKIDIHVIIPYEGLSADQMAQIEEVFKVVYPVDDHHFKVILPYGTLVIDGVTPNMLNYFGRPYEGIAVFDGKKITVTGTLWNGNKIIDERLITPDGSMLFRVTINSGSSGGGGSGGGGSSGMSSSAGSGHQPSQSRAIPTRTVAISDAAQLPHDYCTTPGGTLFSTTPGGTRIIYDRKFLLDPRNSPMAQTPPCHLPNIPGVTSPGTLIEDSKVEVNNLNNLNNHDRKHAVGDDAQFEMDI | – | no binding | – |
| LB-4E-BP1 with T37E, T46E, S65E, and T70E (other, All four mTOR phosphorylation sites changed to glutamate on the LB-4E-BP1 plasmid; The residue numbers count on 4E-BP1 itself; also called T37/46/70E/S65E (all 4 sites mutated); all E) MVFTLEDFVGDWEQTAAYNLDQVLEQGGVSSLLQNLAVSVTPIQRIVRSGENALKIDIHVIIPYEGLSADQMAQIEEVFKVVYPVDDHHFKVILPYGTLVIDGVTPNMLNYFGRPYEGIAVFDGKKITVTGTLWNGNKIIDERLITPDGSMLFRVTINSGSSGGGGSGGGGSSGMSGGSSCSQTPSRAIPATRRVVLGDGVQLPPGDYSTEPGGTLFSTEPGGTRIIYDRKFLMECRNEPVTKEPPRDLPTIPGVTSPSSDEPPMEASQSHLRNSPEDKRAGGEESQFEMDI | – | – | binding result [3]: no binding |
